In US20140248303A1:

Key:
[1] = biological target: 37/67 laminin receptor (LR) (Homo sapiens (Human)) (UniProt P08865); assay: cell-based or functional assay
[2] = biological target: 37/67 laminin receptor (LR) (Homo sapiens (Human)) (UniProt P08865); assay: adhesion of construct-labeled latex microspheres to fixed TNF-activated RBCEC6 cells
[3] = biological target: native CbpA of S. pneumoniae Tigr4 / T4R (on bacteria or in pneumococcal lysate) (Streptococcus pneumoniae Tigr4 strain); assay: cell-based or functional assay
[4] = biological target: 37/67 laminin receptor (LR) (Homo sapiens (Human)) (UniProt P08865); assay: adhesion of labeled latex microspheres to RBCEC6 cells
[5] = biological target: full length CbpA (CbpA-NR12) (Streptococcus pneumoniae Tigr4 strain); assay: competitive inhibition of rCbpA-coated latex beads binding to activated RBCEC6 cells by the LR peptide

CbpA P393G (as printed) expressed on a CbpA- S. pneumoniae strain
adherence to endothelial cells of a CbpA- strain expressing the mutant, less than wild type CbpA [1]: 39 % less

CbpA-R1
bead adherence to RBCEC6 cells, % (compared with full length CbpA-NR12 beads) [2]: 10%

LMWWML palindromic sequence within the 161-180 laminin-binding domain (peptide)
bacterial adhesion to activated RBCEC6 cells, % of control [3]: 108 % of control

full length CbpA (CbpA-NR12)
fold binding over control thioredoxin labeled beads [4]: 20 fold

native CbpA of S. pneumoniae Tigr4 / T4R (on bacteria or in pneumococcal lysate)
pneumococcal (T4R) adherence to activated RBCEC6 cells, inhibited by anti-LRP r711 [1]: 54%
pneumococcal (T4R) adherence to activated RBCEC6 cells, inhibited by laminin [1]: 47%
pneumococcal (T4R) invasion of activated RBCEC6 cells, inhibited by anti-LRP r711 [1]: 31%
pneumococcal (T4R) invasion of activated RBCEC6 cells, inhibited by laminin [1]: 36%

peptide corresponding to amino acids 161-180 of the laminin receptor
adhesion of rCbpA-coated latex beads, % of control [5]: 93 % of control

peptide corresponding to amino acids 263-282 of the laminin receptor
adherence of rCbpA-coated latex beads, % of control [5]: 38 % of control
